Strand notation (5' to 3'): a small letter for the sugar, then the base; units joined by * are phosphorothioate-linked, units joined directly phosphodiester-linked; [ ] holds rarer units or linkages, { } end groups; capitals alone tell only the bases. m = 2'-O-methyl; r = 2'-OH (RNA)
Experiments:
TTR [1] = test: TTR editing in primary human hepatocytes treated with LNP formulated Spy Cas9 mRNA (SEQ ID NO: 2) and sgRNAs, 12.5 ng mRNA; format: cell-based; details: for 12.5 ng mRNA, 3.9 nM sgRNA, Avg % Edit: LNP formulated Spy Cas9 mRNA (SEQ ID NO: 2) and sgRNA, 72 hours
Protocol: (§1) Primary liver hepatocytes. Primary human liver hepatocytes (PHH) and primary cynomolgus liver hepatocytes (PCH) (Gibco) were cultured per the manufacturer's protocol (Invitrogen, protocol 11.28.2012). In brief, the cells were thawed and resuspended in hepatocyte thawing medium with supplements (Gibco, Cat. CM7000) followed by centrifugation at 100 g for 10 minutes for human and 80 g for 4 minutes for cyno. The supernatant was discarded and the pelleted cells resuspended in hepatocyte plating medium plus supplement pack (Invitrogen, Cat. A1217601 and CM3000). Cells were counted and plated on Bio-coat collagen I coated 96-well plates (ThermoFisher, Cat. 877272) at a density of 33,000 cells/well for human or 60,000 cells/well for cyno (or 65,000 cells/well when assaying effects on TTR protein, described further below). Plated cells were allowed to settle and adhere for 6 or 24 hours in a tissue culture incubator at 37° C. and 5% CO2 atmosphere. After incubation cells were checked for monolayer formation and media was replaced with hepatocyte culture medium with serum-free supplement pack (Invitrogen, Cat. A1217601 and CM4000).
In general, the lipid nanoparticle components were dissolved in 100% ethanol with the lipid component of various molar ratios. The RNA cargos were dissolved in 25 mM citrate, 100 mM NaCl, pH 5.0, resulting in a concentration of RNA cargo of approximately 0.45 mg/mL. The LNPs were formulated with a lipid amine to RNA phosphate (N:P) molar ratio of about 4.5 or about 6, with the ratio of mRNA to gRNA at 1:1 by weight.
The LNPs were formed by microfluidic mixing of the lipid and RNA solutions using a Precision Nanosystems NanoAssemblr™ Benchtop Instrument, according to the manufacturer's protocol. A 2:1 ratio of aqueous to organic solvent was maintained during mixing using differential flow rates. After mixing, the LNPs were collected, diluted in water (approximately 1:1 v/v), held for 1 hour at room temperature, and further diluted with water (approximately 1:1 v/v) before final buffer exchange. The final buffer exchange into 50 mM Tris, 45 mM NaCl, 5% (w/v) sucrose, pH 7.5 (TSS) was completed with PD-10 desalting columns (GE). If required, formulations were concentrated by centrifugation with Amicon 100 kDa centrifugal filters (Millipore). The resulting mixture was then filtered using a 0.2 μm sterile filter. The final LNP was stored at −80° C. until further use.
(§2) Additional PCR was performed per the manufacturer's protocols (Illumina) to add chemistry for sequencing. The amplicons were sequenced on an Illumina MiSeq instrument. The reads were aligned to a reference genome (e.g., the human reference genome (hg38), the cynomologus reference genome (mf5), the rat reference genome (rn6), or the mouse reference genome (mm10)) after eliminating those having low quality scores. The resulting files containing the reads were mapped to the reference genome (BAM files), where reads that overlapped the target region of interest were selected and the number of wild type reads versus the number of reads which contain an insertion, substitution, or deletion was calculated.
(§3) The editing percentage (e.g., the “editing efficiency” or “percent editing” or “indel frequency”) is defined as the total number of sequence reads with insertions/deletions (“indels”) or substitutions over the total number of sequence reads, including wild type.
Lipid nanoparticle formulations of modified sgRNAs targeting human TTR and the cyno matched sgRNA sequences were tested on primary human hepatocytes and primary cyno hepatocytes in a dose response curve. Primary human and cyno hepatocytes were plated as described in Example 1. Both cell lines were incubated at 37° C., 5% CO2 for 24 hours prior to treatment with LNPs. The LNPs used in the experiments detailed in Tables 18-21 were prepared using the Nanoassemblr™ procedure, each containing the specified sgRNA and Cas9 mRNA (SEQ ID NO:2), each having Lipid. […]

TTR [2] = test: TTR editing dose response (EC50, maximum editing) in primary human hepatocytes treated with LNP formulated U-depleted Spy Cas9 mRNA and sgRNAs; format: cell-based
Protocol: as §1
For LNPs prepared using the cross-flow technique, the LNPs were formed by impinging jet mixing of the lipid in ethanol with two volumes of RNA solutions and one volume of water. The lipid in ethanol is mixed through a mixing cross with the two volumes of RNA solution. A fourth stream of water is mixed with the outlet stream of the cross through an inline tee. (See WO2016010840 FIG. 2.) The LNPs were held for 1 hour at room temperature, and further diluted with water (approximately 1:1 v/v). Diluted LNPs were concentrated using tangential flow filtration on a flat sheet cartridge (Sartorius, 100 kD MWCO) and then buffer exchanged by diafiltration into 50 mM Tris, 45 mM NaCl, 5% (w/v) sucrose, pH 7.5 (TSS). Alternatively, the final buffer exchange into TSS was completed with PD-10 desalting columns (GE). If required, formulations were concentrated by centrifugation with Amicon 100 kDa centrifugal filters (Millipore). The resulting mixture was then filtered using a 0.2 μm sterile filter. The final LNP was stored at 4° C. or −80° C. until further use.
as §2, §3
Lipid nanoparticle formulations of modified sgRNAs targeting human TTR and the cyno matched sgRNA sequences were tested on primary human hepatocytes and primary cyno hepatocytes in a dose response curve. Primary human and cyno hepatocytes were plated as described in Example 1. Both cell lines were incubated at 37° C., 5% CO2 for 24 hours prior to treatment with LNPs. The LNPs used in the experiments detailed in Tables 20-22 were prepared using the cross-flow procedure described above but purified using PD-10 columns (GE Healthcare Life Sciences) and concentrated using Amicon centrifugal filter units (Millipore Sigma), each containing the specified sgRNA and Cas9 mRNA (SEQ ID NO:1). […] LNPs were incubated in hepatocyte maintenance media containing 6% cyno serum at 37° C., 5% CO2 for 5 minutes. […]

TTR [3] = test: TTR editing dose response (EC50, maximum editing) in primary cyno hepatocytes treated with LNP formulated U-depleted Spy Cas9 mRNA and sgRNAs; format: cell-based, cynomolgus monkey
Method in brief: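 Primary cyno hepatocytes, 24 h after plating, treated with LNPs (Cas9 mRNA plus sgRNA) preincubated 5 min in medium with 6% cyno serum; 8-point 3-fold doses from 300 ng mRNA. Lysed at 72 h; indel/substitution percentage by amplicon NGS, giving EC50 and maximum editing.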

[4] = LNP formulated U-depleted Spy Cas9 mRNA and human specific sgRNAs, dose response
[5] = LNP formulated U-depleted Spy Cas9 mRNA and human specific sgRNAs

| Molecule | 12.5 ng mRNA, 3.9 nM sgRNA, Avg % Edit (TTR [1]) | dose response curve of % editing (shape) (TTR [1]; LNP formulated Spy Cas9 mRNA and sgRNA, 8 point 2-fold dose response starting at 100 ng mRNA) | Max Editing (TTR [2]; [4]) | Max Editing (TTR [3]; [5]) | Max Editing (TTR [2]; LNP with U-depleted Spy Cas9 mRNA and cyno specific sgRNA, 8 point 3-fold dose response starting at 300 ng mRNA, 72 hours) | Max Editing (TTR [3]; LNP formulated U-depleted Spy Cas9 mRNA and cyno specific sgRNAs) |
| --- | --- | --- | --- | --- | --- | --- |
| G000570: TTR sgRNA modified sequence, Human, SEQ ID NO: 111; guide sequence of CR003347 (nucleic acid) guide: mC*mA*mU*rUrGrArUrGrGrCrArGrGrArCrUrGrCrCrUrGrUrUrUrUrArGrAmGmCmUmAmGmAmAmAmUmAmGmCrArArGrUrUrArArArArUrArArGrGrCrUrArGrUrCrCrGrUrUrArUrCrAmAmCmUmUmGmAmAmAmAmAmGmUmGmGmCmAmCmCmGmAmGmUmCmGmGmUmGmCmU*mU*mU*mU | 88.30% | uncharacteristic dose response curve | 98.22% | 96.73% | – | – |
| G000499: TTR sgRNA modified sequence, Human, SEQ ID NO: 106; guide sequence of CR005303 (nucleic acid) guide: mU*mG*mA*rArUrCrCrArArGrUrGrUrCrCrUrCrUrGrArGrUrUrUrUrArGrAmGmCmUmAmGmAmAmAmUmAmGmCrArArGrUrUrArArArArUrArArGrGrCrUrArGrUrCrCrGrUrUrArUrCrAmAmCmUmUmGmAmAmAmAmAmGmUmGmGmCmAmCmCmGmAmGmUmCmGmGmUmGmCmU*mU*mU*mU | 16.07% | – | 96.31% | 74.94% | – | – |
| G000494: TTR sgRNA modified sequence, Human, SEQ ID NO: 101; guide sequence of CR003360 (nucleic acid) guide: mG*mU*mG*rArGrUrCrUrGrGrArGrArGrCrUrGrCrArUrGrUrUrUrUrArGrAmGmCmUmAmGmAmAmAmUmAmGmCrArArGrUrUrArArArArUrArArGrGrCrUrArGrUrCrCrGrUrUrArUrCrAmAmCmUmUmGmAmAmAmAmAmGmUmGmGmCmAmCmCmGmAmGmUmCmGmGmUmGmCmU*mU*mU*mU | 6.37% | – | 75.70% | 60.84% | – | – |
| G000484: TTR sgRNA modified sequence, Human, SEQ ID NO: 91; guide sequence of CR003367 (nucleic acid) guide: mA*mG*mA*rCrArCrCrArArArUrCrUrUrArCrUrGrGrArGrUrUrUrUrArGrAmGmCmUmAmGmAmAmAmUmAmGmCrArArGrUrUrArArArArUrArArGrGrCrUrArGrUrCrCrGrUrUrArUrCrAmAmCmUmUmGmAmAmAmAmAmGmUmGmGmCmAmCmCmGmAmGmUmCmGmGmUmGmCmU*mU*mU*mU | 16.67% | – | 94.14% | 0.22% | – | – |
| G000502: TTR Cyno specific sgRNA modified sequence, SEQ ID NO: 114; guide sequence of CR000689; cross homologous between mouse and cyno (nucleic acid) guide: mA*mC*mA*rCrArArArUrArCrCrArGrUrCrCrArGrCrGrGrUrUrUrUrArGrAmGmCmUmAmGmAmAmAmUmAmGmCrArArGrUrUrArArArArUrArArGrGrCrUrArGrUrCrCrGrUrUrArUrCrAmAmCmUmUmGmAmAmAmAmAmGmUmGmGmCmAmCmCmGmAmGmUmCmGmGmUmGmCmU*mU*mU*mU | – | – | – | – | 91.5% | 100.05% |
| G000482: TTR sgRNA modified sequence, Human, SEQ ID NO: 89; guide sequence of CR003365 (nucleic acid) guide: mU*mG*mU*rArGrArArGrGrGrArUrArUrArCrArArArGrGrUrUrUrUrArGrAmGmCmUmAmGmAmAmAmUmAmGmCrArArGrUrUrArArArArUrArArGrGrCrUrArGrUrCrCrGrUrUrArUrCrAmAmCmUmUmGmAmAmAmAmAmGmUmGmGmCmAmCmCmGmAmGmUmCmGmGmUmGmCmU*mU*mU*mU | 19.10% | – | 97.02% | 97.47% | – | – |
| G000567: TTR sgRNA modified sequence, Human, SEQ ID NO: 109; guide sequence of CR003352 (nucleic acid) guide: mG*mA*mA*rArGrGrCrUrGrCrUrGrArUrGrArCrArCrCrGrUrUrUrUrArGrAmGmCmUmAmGmAmAmAmUmAmGmCrArArGrUrUrArArArArUrArArGrGrCrUrArGrUrCrCrGrUrUrArUrCrAmAmCmUmUmGmAmAmAmAmAmGmUmGmGmCmAmCmCmGmAmGmUmCmGmGmUmGmCmU*mU*mU*mU | 48.95% | – | – | 97.06% | – | – |
| G000483: TTR sgRNA modified sequence, Human, SEQ ID NO: 90; guide sequence of CR005298 (nucleic acid) guide: mU*mC*mC*rArCrUrCrArUrUrCrUrUrGrGrCrArGrGrArGrUrUrUrUrArGrAmGmCmUmAmGmAmAmAmUmAmGmCrArArGrUrUrArArArArUrArArGrGrCrUrArGrUrCrCrGrUrUrArUrCrAmAmCmUmUmGmAmAmAmAmAmGmUmGmGmCmAmCmCmGmAmGmUmCmGmGmUmGmCmU*mU*mU*mU | 7.37% | – | 77.39% | 56.52% | – | – |
| G000480: TTR sgRNA modified sequence, Human, SEQ ID NO: 87; guide sequence of CR003353 (nucleic acid) guide: mA*mA*mA*rGrGrCrUrGrCrUrGrArUrGrArCrArCrCrUrGrUrUrUrUrArGrAmGmCmUmAmGmAmAmAmUmAmGmCrArArGrUrUrArArArArUrArArGrGrCrUrArGrUrCrCrGrUrUrArUrCrAmAmCmUmUmGmAmAmAmAmAmGmUmGmGmCmAmCmCmGmAmGmUmCmGmGmUmGmCmU*mU*mU*mU | 59.33% | – | 98.69% | 20.32% | – | – |
| G000486: TTR sgRNA modified sequence, Human, SEQ ID NO: 93; guide sequence of CR003339 (nucleic acid) guide: mA*mC*mA*rCrArArArUrArCrCrArGrUrCrCrArGrCrArGrUrUrUrUrArGrAmGmCmUmAmGmAmAmAmUmAmGmCrArArGrUrUrArArArArUrArArGrGrCrUrArGrUrCrCrGrUrUrArUrCrAmAmCmUmUmGmAmAmAmAmAmGmUmGmGmCmAmCmCmGmAmGmUmCmGmGmUmGmCmU*mU*mU*mU | 61.33% | – | – | – | – | – |

From patent publication US20230035659A1, “Compositions and Methods for TTR Gene Editing and Treating ATTR Amyloidosis Comprising a Corticosteroid or Use Thereof” (Intellia Therapeutics, Inc., priority 2019, published 2023)
